Paper PMC2897846

Target: CD40 on human B cells (human (endogenous in B cells from PBMC)) (UniProt P25942)
Chain of UniProt P25942 (P25942 21-277): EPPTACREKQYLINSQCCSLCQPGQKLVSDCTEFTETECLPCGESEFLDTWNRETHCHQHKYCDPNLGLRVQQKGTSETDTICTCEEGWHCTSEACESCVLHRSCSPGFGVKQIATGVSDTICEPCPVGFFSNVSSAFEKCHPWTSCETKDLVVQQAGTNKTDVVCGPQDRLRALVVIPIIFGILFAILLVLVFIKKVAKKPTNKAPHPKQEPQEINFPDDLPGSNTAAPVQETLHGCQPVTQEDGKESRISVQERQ

## CD40 ligand (CD40L, CD154) incorporated into HIV virions (from UniProt P29965 1-261)
  intracellular AID protein (flow cytometry) in CD19+ B cells exposed to CD40L+ HIV NL4-3 for three days (% of CD19+ cells): 2.11
